Values belong to the molecule of their own block, whether it stands above or below them. Non-standard residues stand in square brackets, D forms with d. No end group written: not given here. FAM = fluorescent label on the peptide N-terminus (FAM, not expanded in the evidence); pY = N[C@@H](Cc1ccc(OP(=O)(O)O)cc1)C(=O)O
How the values were obtained:
[1] = molecular target: FAM-labeled c-MET peptide (1353-1360) with Y1356 phosphorylated, FAM-N-A-T-pY-V-N-V-K; assay: fluorescence polarisation
[2] = molecular target: SHIP2 SH2 domain (SHIP2-SH2), wild type (human) (UniProt O15357); assay: NMR titration
SHIP2-SH2 S27A = molecular target: T1, SHIP2-SH2 S27A (human, UniProt O15357 20-117, S27A); assay: fluorescence polarisation
T1 sequence (looked up): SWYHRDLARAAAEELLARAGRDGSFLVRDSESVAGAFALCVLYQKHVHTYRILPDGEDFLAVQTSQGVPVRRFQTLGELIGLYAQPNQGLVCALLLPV

SHIP2-SH2 R28A = molecular target: T2, SHIP2-SH2 R28A (human, UniProt O15357 20-117, R28A); assay: fluorescence polarisation
T2 sequence (looked up): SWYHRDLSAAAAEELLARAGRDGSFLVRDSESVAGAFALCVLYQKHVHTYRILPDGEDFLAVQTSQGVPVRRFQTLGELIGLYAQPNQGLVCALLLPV

SHIP2-SH2 D48A = molecular target: T3, SHIP2-SH2 D48A (human, UniProt O15357 20-117, D48A); assay: fluorescence polarisation
T3 sequence (looked up): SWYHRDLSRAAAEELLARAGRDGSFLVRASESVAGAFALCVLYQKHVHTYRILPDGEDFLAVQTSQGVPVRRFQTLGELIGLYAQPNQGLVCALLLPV

SHIP2-SH2 S49A = molecular target: T4, SHIP2-SH2 S49A (human, UniProt O15357 20-117, S49A); assay: fluorescence polarisation
T4 sequence (looked up): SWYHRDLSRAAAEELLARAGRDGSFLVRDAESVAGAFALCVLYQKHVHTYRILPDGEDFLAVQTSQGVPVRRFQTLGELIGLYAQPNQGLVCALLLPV

SHIP2-SH2 E50A = molecular target: T5, SHIP2-SH2 E50A (human, UniProt O15357 20-117, E50A); assay: fluorescence polarisation
T5 sequence (looked up): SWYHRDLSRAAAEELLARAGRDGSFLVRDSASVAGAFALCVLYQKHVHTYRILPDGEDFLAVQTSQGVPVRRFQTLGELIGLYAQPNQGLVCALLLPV

SHIP2-SH2 R70A = molecular target: T6, SHIP2-SH2 R70A (human, UniProt O15357 20-117, R70A); assay: fluorescence polarisation
T6 sequence (looked up): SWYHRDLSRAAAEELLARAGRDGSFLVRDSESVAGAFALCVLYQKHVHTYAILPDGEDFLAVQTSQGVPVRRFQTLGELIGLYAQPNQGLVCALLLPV

SHIP2-SH2 Q82A = molecular target: T7, SHIP2-SH2 Q82A (human, UniProt O15357 20-117, Q82A); assay: fluorescence polarisation
T7 sequence (looked up): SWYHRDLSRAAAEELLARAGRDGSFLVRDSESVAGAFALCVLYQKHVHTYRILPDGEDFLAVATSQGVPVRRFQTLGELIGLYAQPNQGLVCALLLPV

SHIP2-SH2 S84A = molecular target: T8, SHIP2-SH2 S84A (human, UniProt O15357 20-117, S84A); assay: fluorescence polarisation
T8 sequence (looked up): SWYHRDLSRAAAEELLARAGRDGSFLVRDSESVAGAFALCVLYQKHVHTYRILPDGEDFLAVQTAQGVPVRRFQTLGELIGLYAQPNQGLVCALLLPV

Kd [1]: 7.4 µM
Molecule: SHIP2 SH2 domain (SHIP2-SH2), wild type (from UniProt O15357 20-117) (domain or fragment)

Kd [2]: 16.5 µM
Molecule: Y1356-phosphorylated c-MET peptide (1353-1360), N-A-T-pY-V-N-V-K, unlabeled

Kd (SHIP2-SH2 S27A): 7.3 ± 0.3 µM | Kd (SHIP2-SH2 R28A): 24.7 ± 1 µM | Kd (SHIP2-SH2 D48A): 5.5 ± 0.2 µM | Kd (SHIP2-SH2 S49A): 134 ± 5.6 µM | Kd (SHIP2-SH2 E50A): 3.2 ± 0.1 µM | Kd (SHIP2-SH2 R70A): 239 ± 12.1 µM | Kd (SHIP2-SH2 Q82A): 7.5 ± 0.3 µM | Kd (SHIP2-SH2 S84A): 6.4 ± 0.2 µM
B1: FAM-labeled c-MET peptide (1353-1360) with Y1356 phosphorylated, FAM-N-A-T-pY-V-N-V-K (peptide)
peptide: {FAM}-NAT[pY]VNVK

From publication PMC6251712 (Archives of biochemistry and biophysics, 2018)
